Data from the DeepSol protein solubility set.

Assay: soluble on expression in E. coli; label from the status in PepcDB or PDB records

Row | Sequence | soluble on expression in E. coli
1 | MTAPFNALLIANRGEIAIRIARACADLGIRSVAVFAEDDAASLHVRKADVALPLAGRGVAAYLDMDRLVALALEQGCEAIHPGYGFLAENGEFARRCQRAGIHFVGPQAEVLDLFGDKAAARALAERLEVPLVAGINRAVSVEEAEAFLEGLGDGAAVMLKALAGGGGRGMRAVEEVAQLADAYRRCRAEAQAAFGRDELYVEQRVARARHIEVQVLGDGSGAVSHLWERDCSLQRRQQKLLEIAPSPDLPEATREALIDCALRMAGAVRYRGIGTFEFLVDDERPGRFYFMEANPRIQVEHTVTEEVTGVDLLHAQLRLAAGMELAALGLERPPAIGGCAVQLRINLETLAADGSARPAVGTIGAYEPPSGPGLRVDGYGYAGYRVSPSYDSLLAKLVVRGADYPAALRRAYRALCEFRLEGVASNLDLLRNLLLHPAVQANRVDTRFVESHLETLLAPIPASHPRLRAECPLAEDAAPARVEAPLGSLPLSAPSSGVLVALEVADGERVRAGQRVAILEAMKMEFEVKAPGGGIVRRLAASLGEPLEEGATLLFLEPTEDDDEQAPTEQALDLAHIRADLAEVLERQAALGDERRPQALARRRKTGQRTARENVLDLLDEGSFSEYGGFALAAQRRRRSAEELLELSPADGLVAGTGTVGAASFGVQAARCLVLAYDYTVFAGTQGVMNHKKTDRLLGLAEQWRLPLVLFAEGGGGRPGDTDFVGVAGLDCHTFVGMARLSGLVPLVGVVSGRCFAGNAALLGCCDVIIATRDATIGMAGPAMIEGGGLGRFAAEEVGPTGVQGPNGVIDVLVEDEAEAVAVARRYLGYFQGPLPDWSCADQRELRHLVPENRLRAYDIRQAIEVLADRGSVLELRRQFAPGLVTALLRIEGRAFGLIANNPGHLGGAIDAAAGDKAARFMQLCDAFDIPIVSLCDTPGFMVGPEAEKQATVRHVSRMFVSAASLTVPFFTVVLRKGYGLGAQAMAAGSFHSPLFTVAWPSGEFGAMGLEGAVRLGFAKELAAEEDPQRREALFRGMVDKAYRNGKALNMASYLEIDAVIDPAETRAWLLRGLAVAGEPAPRAGRKRPF | not soluble
2 | MWPTHDLPILSNKSLILRKLQIEDTPRLVELAQDPAMRNFTTIPSPFTVENALEFISSSSVPTDSLVRWAIATADKPSIYLGTIELRAQSPICVDIGYSLHPHARGLGIMPKAVRLVSNYALSVGFHRVEIKIRTSNVASRRATERARATFEGIAHKAELHRGSIYDLAIYSITS | not soluble
3 | SLRHFGKRLRVSSSQPFRRSFNPKGEPMSTQIFVNLPVKNLNQSIEFFTQLGFQFNSQFTDETATCMIVSESIFVMLLTHEKFKMFTPKEICDATKSTEVLVCLSFDSREQVDEMVRLAVTAGGTTYNEPQDHGFMYGHGFADLDGHIWEIIYMEPSAINLGEG | soluble
4 | GPGSMNCFGVRNWWRNNLPELQLLNPFCSFTIQELSFGEPHMYINYTPTDQRMIRLAGATEDECEDIMEACITYGMNHAIIERPRTDDGGDLINQPAITSFGYTESFMSKLEVSPPADIGQRTPEGVDDPGQKPRVYPRNVGFKIMP | not soluble
5 | MTSLQRKGPQTRILSTGEEEKLKRDQALVSAFKQQKLEKEAQKNWDLFYKRNSTNFFKDRHWTTREFEELRSCREYEGQKLTLLEAGCGVGNCLFPLLEEDSNIFAYACDFSPRAVDYVKQHPLYNAERCKVFQCDLTRDDLLDHIPPESVDAVTLIFVLSAVHPEKMHLVLLNVYKVLKPGRSVLFRDYGLNDHAMLRFKAGSKLGENFYVRQDGTRSYFFTDEFLAKLFVDAGYEEVVNEYVFRETVNKKEGLCVPRVFLQSKFRKPPKDPAPTTDSASLLRKEF | not soluble
6 | AKLGAVYTEGGFVEGVNKKLGLLGDSVDIFKGIPFAAPTKALENPQPHPGWQGTLKAKNFKKRCLQATITQDSTYGDEDCLYLNIWVPQGRKQVSRDLPVMIWIYGGAFLMGSGHGANFLNNYLYDGEEIATRGNVIVVTFNYRVGPLGFLSTGDANLPGNYGLRDQHMAIAWVKRNIAAFGGDPDNITLFGESAGGASVSLQTLSPYNKGLIRRAISQSGVALSPWVIQKNPLFWAKKVAEKVGCPVGDAARMAQCLKVTDPRALTLAYKVPLAGLEYPMLHYVGFVPVIDGDFIPDDPINLYANAADIDYIAGTNNMDGHIFASIDMPAINKGNKKVTEEDFYKLVSEFTITKGLRGAKTTFDVYTESWAQDPSQENKKKTVVDFETDVLFLVPTEIALAQHRANAKSAKTYAYLFSHPSRMPVYPKWVGADHADDIQYVFGKPFATPTGYRPQDRTVSKAMIAYWTNFAKTGDPNMGDSAVPTHWEPYTTENSGYLEITKKMGSSSMKRSLRTNFLRYWTLTYLALPTVT | soluble
7 | MSLDTIAVVLKQPQQVELSRLSLTAPTDDDIVVDVAWSGVSTGTERLLWSGRMPQFPGMGYPLVPGYESVGEVVEAGSATDLKPGQMVFVPGAKCFGEVRGLFGASASRLVVPAKRVVPLDSKLGERGILIALAATAYHAIAARGATPPDCIVGHGVLGRLLARISIALGNPPPVVWEKNPIRSGGAEGYAVVDPASDERRDYRSIYDVSGDPKLLDTLISRIAATGEIVLAGFYSEPLSFSFPPAFMREARIRVAAEWQPPDIGATKALIESGKLSLDGLITHHQEAASAPDAYRIAFEDPACLKMVLNWRPSEGHHHHHH | soluble
8 | MPLLYLNTRECRWYLMGEGEMKKIAAISLISIFLISGCAVHNDETSIGKFGLAYKSNIQRKLDNQYYTEAEASLARGRISGAENIVKNDAAHFCVTQGKKMQIVDLKTEGAGLHGVARLTFKCGE | not soluble
9 | MSLNRRHTIKHNFPIVGHFRYLLEKIGPELRQYIVANNREELPFNRRQRSWIYASSKQENNYQGFGTDQDQNSPGFVFIKPSMFSYAVKEGHPNKKKPDFVPCAKIMGAYNKRRRPYRPYSIINISGMSYGSLSARAVESLNKGALKAGCYQNTGEGSLAPHHKHGADIMFHFGTGYFGVRDEHGNFSMSKLKALVEANPCIRAIDLKLSQGAKPGKGGVLPASKITQEIADIRGLPMGKDVISPAYHSVFSNVPEMMDFIENIAQETGLPVGFKSAVGKMEMWVELADRMLEKGYGPDFITIDGGEGGTGAAPPAFADHVSLPFVYAFSNVYKIFAERGLTDRIVFAASGKLGFPESSLMAFALGADVIHVAREAMMSIGCIQAQVCHNNTCPSGVATQNKWLQSGIDVPLKADRLYNYIKNLRKEVLEITHACGYEHPSQMTMTDIDISMGDNNLTMPLVDAYKYNKIPVNFESMQKLADEGHHHHHH | not soluble
10 | MSLGPYYINTHFLYGSEEKANKLLEFIDKEKENILKCPDRILEETMKNYQSDPIYRGLIDEMCDFIKNNIDVNEVDYISGGERRDWFFSPIIAKLLNKPHITIYKDLTTVVSSDGKTEELKELNGESVLHIADLITEASSYERAWIPAIKNNGGRIKWSVVVVDRKQGGAELLKSYDIKSFSMVDIDIGLFKRVLDMGLIDRGQFEMIEQYILDPKESMAKFLRKNEGHHHHHH | not soluble
11 | MIPYRQLVRMSHLAARFVGGADVHVVDPLVDLRNVFEQTDQLKIALECRNLTVDVEKVKNEYDEWFETYQKWKQADKESISQLKKELRAKKDGLLNALALPNLVHHAGKKQTPLLKPSKHAQYLAQQGLMRIDKQNHVVHLVGYPVVVQKMIREQLVDLFPGCQPISPSYFARAAILEALNIDQSTCIPFTDDSSHFPLTYLVGNSLPAITSPFLKTSFGEKNEWPISVQCTGASYTEKKNQVDLGNARQRMKHCALWMSKSAEELEGIINDANVRVGAYLDEGLDLEVKVREVRGSELKNYESQAFVVENRGLSLSRISRIGDYVSKRLNIQYSGSPATEKSEKSDGFVQMVYVETDIDRILARLVDDLIEGKEPPKYIRDAIKKSF | not soluble
12 | MGSDKIHHHHHHVNSDNNPNQISDIKPILKVYIENSGSMDGYMCDGSQLKDAIFDYVSDLSTCVDTTQLYYINNRVIPYHADLEQYIKTMNPITFQKAGGNRSNSDLSKMLSTVLDAMTDSTVSIFVSDCILDLPVSDAQRFLSTCQISIKNTINKGRKNIPLLGVEILKMKSDFNGKYFYQNGGSEVLTNVKRPYYIWIFGNSNVLAKLNTEVLFKGLEKYGYDNIISYCPKTSIPYDITNRALISKTINPIKGDYNATIRADFCTTLQSEDVLLNLDNYSFNNQNLIIENIKPIIATEREYSHFINITIPKGVNIAEDYLILKAPNMPSWVLESNDESGENVKGNLDKTTGIKYLIGGVSDAYKKDNVLTTLKFTVKRK | not soluble
13 | MGSDKIHHHHHHMIKRAVEIVRQRGVGVLIKKIPPYIYQQVWPYLPSAGYTYKNGIKSCERGRVLDQFLPKYITQYATHQPSYESQYIEAIRRHVTEGQDVVLVGGGEGISTVVAANQVQRTGEVTVFEGAAEEARKSQVVVEINEVSDRTTVHHTIVSEDVSLRSAASGAEVLPSAELPSCDVLAIDADGAEISILDGIVNHPAVLIVEHHAVADTSGLALEYQPDRVRDLITNLGYDIVDEMSDPAGAGGGRFEERIYVGKRLAVEPSDLM | not soluble
14 | MAHHHHHHMGQSNGAALAKDTIASEQFLKYQEARHRIVHRAFVKCVVPSSKGKDDGYDLTPEERVCVEEFAILYAGFAKKEFLHFSSLYEQYQRDQYEKMRLEVMQQQARKDIQH | not soluble
15 | PDVSVQEMVSAYTTFVNKGIRVNPLPITRIEDQYGNVVAQFSPNMVEVLPPDAAYKMLYMLKSVVDGGTGSRLRYRYGFKLDMGGKTGTTQNNSD | not soluble
16 | MFSSSALSYINGFCFSTAGYSPEFCHAVRFVLIEEGALNQDGTPKPNLGYVNDPKDKGGETKGGISKRAFPNIDIAALTLDGIVALYHRYFWKPAYCQDWPASVALYTFDAAVQHGVTNALLMLQEIAGTKADGKVGPATRNAVNSADKEYLCARYGLRRARFYARIIKKDTSQTRFIEGWHNRLVNLTNAAWELQ | soluble
17 | MGSDKIHHHHHHMDAIDLKRLSDFVRHRQNEDGGFAFCKPLPSTLAETFYAVSILTSIGEDVPRREKVVEFLKSRIQTEINSLFYTLHSLNLLGEDLPDYSSFLLKRLEGLKAERKYLLSDGGVTATYTFLQPNALRDAYMISTLLHLYNRDVPEETKMLVRRYRRETEFGVGYGVKKPNLEETFYASYILRDKAVISFVKSFESNGGFAKQPGGYPPYLEDTYYATSTLSLLSQRYSNPRTAEFIASLQNANGGFRRSIHGGISTLEDSYYAVEVLRRLEFR | not soluble
18 | MGSDKIHHHHHHMYVAVKGGEQAILNTHKLISETRRGDPEIAELTLPQISEQLGLAVDRVMAEGSVYDRQLAALALKQAQGDAMEAIFLLRAYRTTLPRIAVSEPIDTSRMAIRRRISATFKDLPGGQVLGPTYDYTHRLLDFALTAEGLERVRAVPAAEPLDQSVPRVVDLLDDEGVIQEENDDDQEEVFDLTRQPKSFPAGRDQRLQNLARADEGFLLGLAYSTTRGYGFNHPFVGELRLGEVTVEIVPEELGFPIVVAEVTVTECQMINSFRGSAEQPPQFTRGYGLTFGHNEGKAMSMSLVDRAMRARELGEDVRYPAQDEEFVLSHTDNVEANGLVTHYKLPHYVDFQAELQLVRQLRAEYEAARAAAQTREAAE | not soluble
19 | EDAALREEAKGLFEVIPMQAPQLADNNTVTRDKIDLGAMLFFDPRMSKSGVFSCQSCHNVGLGGVDGLETSIGHGWQKGPRNAPTALNAVFNVAQFWDGRAPDLAAQAKGPVQAGVEMNNTPENLVATVQSMPGYVEAFAKAFPGQKDPISFDNFALAVEAFEATLITPNSKFDQWLMGADGAMSADEKAGLKLFIDTGCAACHNGINIGGNGYYPFGVVEKPGAEVLPAGDKGRFAVTATADDEYVFRAGPLRNIALTAPYFHSGKVWDLREAVSVMANSQLGATLDDTQVDQITAFLGTLTGEQPEVVHPILPVRSAQTPRPEHMN | soluble
